This is an account of results in the DeepSol protein solubility set.

This series in a line: soluble on expression in E. coli; label from the status in PepcDB or PDB records.
For “HRYGDEIDALVEAFNRMRESLAVAYQQQQGMLQAVRESEALLRAIARRIPNGGVWVVDTDGRYIMFEGSLVESLGLSGQEALGRMPGDLFGEPLADRLVGCYRLALAGGTLSEEIEYRERVLWIQFAPLEDEHGAVMAAVALGID”, the “soluble on expression in E. coli” value is listed as “not soluble”. Turning to “HTHWGYTGHDSPESWGNLSEEFRLCSTGKNQSPVNITETVSGKLPAIKVNYKPSMVDVENNGHTIQVNYPEGGNTLTVNGRTYTLKQFHFHVPSENQIKGRTFPMEAHFVHLDENKQPLVLAVLYEAGKTNGRLSSIWNVMPMTAGKVKLNQPFDASTLLPKRLKYYRFAGSLTTPPCTEGVSWLVLKTYDHIDQAQAEKFTRAVGSENNRPVQPLNARVVIE”, the “soluble on expression in E. coli” value was “soluble”.

On to “HYTSPTVIQAIYNAVEQMDFTPGTVLEPSMGIGNFFGMLPEKLAAAKLYGVELDDLTGRIARQLYQKADITVDGFERTDHPDDFFDLAVGNVPFGSYQVHDKRYDRQNLMIHDYFITKTLDKVRPGGIVAFITTKGTMDKKNSKAREALAQKADLLGAVRLPSNAFKANAGTEVTTDILFFQKRDRIPEKLPEWVEVGQTEDGIPLNRYFLDHPEMVLGTM”, for which the “soluble on expression in E. coli” value was “not soluble”. Under “IAPTAQKLSKIYGVRSSIIIGQAALDSHFGSTLLASKYHNLFSIEASPGQGAVRLKSHEYKNGRWQEVTNRYLVYESWKESLYDYMAILHGNKIWDKALYTTMMTSSGYKTVARALQAAGFNSDPNYADKLIAVIEENNLTDYDK” stands “not soluble”. As for “IGDWGYSVSANLTTISNKVKSLVQDGYSIIAGDKSQSYTMAGYPIGYFYGYKVAGVYQNQAEIDASPVNTLATVTPGDLKFADVNGDGKITPDDRTKIGDPTPDVTYGISLGLSYKNWELSMEMMGQGGNQIYRTWDNYNWAQFNYMEQRLDRWHGEGTSNTQPLLNTKHAINSENSEYFIEDGSFFRIRNLQLAYSFDKTLLSKIRMQALKVYVNIQNLKTWKHNTGYTPEIGGSAIAFGVDNGTYPVPAVYTFGINLTF”, the “soluble on expression in E. coli” value is recorded as “not soluble”. For “IGNTLHNYSVLADSKSVLLGVMSKNIQVGSFAYRYLCRTSSRMNLNHLQTVDGPIGRCYTLISQDGERTFAINEGHMNQLLPESIPEEVFEKASALVVSSYLMRGKEEDPMPKAVQRAIDFAKKHDVPVVLTLGTKYVIEGNAEWWQEYIRENVSVVAMNEEEGAALTGEHDPLAAADKALEWVDLVLCTAGPNGLYMAGYTDEKVKRETTHDILESSIEEFNKFEFSRAMRKEDCVNPMKVYSHIGPYLGGPLEIKNTNGAGDAALSALLHDMAANSFHQKEVPTSEKHEVRCLTYSSLSQICKYANRVSYEVLTQHSPRLSRALPEREDSLEETYWDR”, the “soluble on expression in E. coli” value is reported as “not soluble”. Turning to “IKQMLLDWCRAKTRGYEHVDIQNFSSSWSDGMAFCALVHNFFPEAFDYGQLSPQNRRQNFEVAFSSAETHADCPQLLDTEDMVRLREPDWKCVYTYIQEFYRCLVQKGLVKTKKS”, the “soluble on expression in E. coli” value is listed as “soluble”. Turning to “INVIISTIISTKRADDFIIAMCNLIQRLTIDSLHIVGDIYDRGPGAHIIMDTLCNYHNFDIQWGNHDILWMGAASGNDSCIANVIRMSMRYGNLGTLEDGYGINLLPLATFAMDTYADDPCTIFMPKMNFADTNYNEKTLRLITQMHKAITIIQFKLEAEIIDRRPEFGMSNRKLLEKIDFERGVFVYEGKEYALRDTNFPTVDPADPYRLTDEERELVEKIHYSFMNSEKLKKHMRCLFTYGGMYLVSNSNLLYHASVPLNEDGSFKHVKIRGKEYWGRKLLDKADQLIRTAYFDEEGEDDKEFAMDYIWYMWCGPEAPLFDKDKMATFERYFLEDKEIQKEKKGYYYTLRNREDICDQILDEFGALGPHSHIINGHVPVKTIQGEQPMKANGKLFVIDGGFSKAYQPETGIAGYTLVYHSHGMQL”, the “soluble on expression in E. coli” value is given as “not soluble”. Under “ISEFDSGETMREEQPHLATTWAARGWVEEEGIGSATLGRLVRAWPRRAAVVNKADILDEWADYDTLVPDYPLEIVPFAEHPLFLAAEPHQRQRVLTGMWIGYNERVIATEQLIAEPAFDLVMHGVFPGSDDPLIRKSVQQAIVDESFHTYMHMLAIDRTRELRKISERPPQPELVTYRRLRRVLADMPEQWERDIAVLVWGAVAETCINALLALLARDATIQPMHSLITTLHLRDETAHGSIVVEVVRELYARMNEQQRRALVRCLPIALEAFAEQDLSALLLELNAAGIRGAEEIVGDLRSTAGGTRLVRDFSGARKMVEQLGLDDAVDFDFPERPDWSPHTPR” stands “soluble”; under “ISEFMSDITVTNWAGNITYTAKELLRPHSLDALRALVADSARVRVLGSGHSFNEIAEPGDGGVLLSLAGLPSVVDVDTAARTVRVGGGVRYAELARVVHARGLALPNMASLPHISVAGSVATGTHGSGVGNGSLASVVREVELVTADGSTVVIARGDERFGGAVTSLGALGVVTSLTLDLEPAYEMEQHVFTELPLAGLDPATFETVMAAAYSVSLFTDWRAPGFRQVWLKRRTDRPLDGFPYAAPAAEKMHPVPGMPAVNCTEQFGVPGPWHERLPHFRAEFTPSSGAELQSEYLMPREHALAALHAMDAIRETLAPVLQTCEIRTVAADAQWLSPAYGRDTVAAHFTWVEDTAAVLPVVRRLEEALVPFAARPHWGKVFTVPAGELRALYPRLADFGALAGALDPAGKFTNAFVRGVLAG”, “soluble”; under “IVGGYTCAANSIPYQVSLNSGSHFCGGSLINSQWVVSAAHCYKSRIQVRLGEHNIDVLEGNEQFINAAKIITHPNFNGNTLDNDIMLIKLSSPATLNSRVATVSLPRSCAAAGTECLISGWGNTKSSGSSYPSLLQCLKAPVLSDSSCKSSYPGQITGNMICVGFLEGGKDSCQGDSGGPVVCNGQLQGIVSWGYGCAQKNKPGVYTKVCNYVNWIQQTIAAN”, “soluble”. With “KDINLYKGSIPSGKQQGVDAILISNPNLINILEQAKQKNTAQGSESTTNKIIGYTTTANVNVDNQNIFSVSKLNNEQFQRKIIVNATEETLDQSQTLQSNESIVLPMPGKYKSTDKNKVMITQGPNLIGIHANEKENIETKKFVNW”, the “soluble on expression in E. coli” value was “not soluble”. As for “KDMFNTKSSNGKLRIEDASHNARKLGLAPSSTDEKKIRDLYGDSLTYEQYLEYLTMCVHDRDNMEELIKMFSHFDNNSSGFLTKNQMKNILTTWGDALTEQEANDALNAFSSEDRINYKLFCEDIL”, the “soluble on expression in E. coli” value was “soluble”. Under “KEMRQQVPATIKGPTEEYEYYMELMALLNNLLETARSRGFKFLDSHIEAPEQSSIFLMYPLVSEDHRLISFITDNLRLMAMGQMSPHELEGLLEQEIEAIQNELLLPSRSLQRTAE” stands “not soluble”. Under “KETCSTGLYTHSGECCKACNLGEGVAQPCGANQTVCEPCLDSVTFSDVVSATEPCKPCTECLGLQSMSAPCVEADDAVCRCAYGYYQDEETGHCEACSVCEVGSGLVFSCQDKQNTVCEECPEGTYSDEANHVDPCLPCTVCEDTERQLRECTPWADAECEHHHHHH” stands “soluble”; under “KFGGINETYLPPNNTVRTAQASFDENFPHFRTEPIKLVITGATNQQLVDVYQQANKVEGLTDRFKPSSATKDGTTVLSAGIENREDNAKVVEQLRAIDAPEGVSVYIGGIPAMEVESIEALFDKLP”, “not soluble”; under “KIIEEFIDSLFSGVVETSETKQLKADLLANAEDRYEDLLSQGKSENEAIGTIISEFGTIDELMEELNLENKQVDEPNDS”, “not soluble”.

For “KKEKSPKGKSSISPQARAFLEEVFRRKQSLNSKEKEEVAKKCGITPLQVRVWFINKRMRSK”, the “soluble on expression in E. coli” value is “soluble”. As to “KKPIPTLFLHGFGGSANSEKFMVKQAEKRGVTKDIITAYVSKDGAVTFKGKLRKDAVNPIVKIELENNRQGYLDKNAAWFKNVLTKLQSEYNFDKFNFVGHSMGNLTFAQYMMTYGNDKSLPQLNKQVNIAGTFNGVLNMNEDVNEITVDKDGKPSRMNQPYQQLRVLKDIYKGKGIEVLNIYGDLKDGTHSDGRVSNSSSKSLKYLLGNSPKSYRESKYEGEPAQHSQLHENENVANELIDFLWKK”, the “soluble on expression in E. coli” value is “not soluble”. Under “KKPLSVFKGPLLHISPAEELYFGSIESGEKKTLIVLTNVTKNIVAFKVRTTAPEKYRVKPSNSSCDPGASIDIIVSPHGGLTVSAQDRFLIMAAEMEQSSGTGPAELSQFWKEVPRNKVMEHRLRCHTVESSKPNSLML” stands “soluble”; under “KQKGNYGEYLADDNLINNPKLKEAGYDLERIGGKVPTSPDDKITKGIDGIYINKNPNSNIKYVIDEAKFGKAGLSAKTRDGKQMSDSWLMGSRSRDNRILKALNNNEELADDILEALANNQVERILSKVDINGEVTTYRLDSEGNIIGLWP”, “soluble”. Regarding “KQKKMQAMIVTSRPDRVIRMIHHKLHRGVTIINDAEGTYNHEHKAILVTIITRAEFNDFKYIMKKTDKNAFVSVADNVNIIGRFVEED”, the “soluble on expression in E. coli” value was “not soluble”. For “KSDSENIKDVKLQLNYAYEIIPVDYTNCNIDYLTTHDFYIDISSYKKKNFSVDSEVESYITTKFTKNQKVNIFGLPYIFTRYDVYYIYGGVTPSVNSNSENSKIVGNLLIDGVQQKTLINPIKIDKPIFTIQEFDFKIRQYLMQTYKIYDPNSPYIKGQLEIAINGNKHESFNLYDATSSSTRSDIFKKYKDNKTINMKDFSHFDIYLWTK”, the “soluble on expression in E. coli” value is given as “soluble”. Turning to “KTISLYKDSIPKEKTEGTDAILISDNQLINQLQTAAKTSSSQNKANTAAITFKQSNKSETDQSTTSQVIGYTTTASLKADKKNIFDVKKLNNEKSERKIIVGATVETLNQANTLQANEAIIKPAPGKYQSTDSHKVMITQGPNIVGIHANEKEDKETQKFINW”, the “soluble on expression in E. coli” value is “soluble”. On to “KTNTEQFCASCHMQDAYPEYLHSVHYQTRTGVGASCPDCHVPHEFGAKMKRKIIAAKEVYAHYTGKVDTLEKFNAHRLEMAQNEWARMKANDSKECRNCHNVDRMTFNDQRSVAARMHQKMKTEGKTCIDCHKGIAHQLPDMSGVESGFKDEK”, for which the “soluble on expression in E. coli” value was “not soluble”. With “KTTTTIYDKNKEYAGKLSGQKGTYVELNAISDHLKNAVIATEDRTFYENNGVNFKRFFLAVATLGKFGGGSTITQQLAKNAYLSQDQTIKRKAREFFLALELTKKYSKAEILTMYLNNSYFGNGVWGVEDASRKYFGTSAANLTVDEAATLAGMLKGPEVY”, the “soluble on expression in E. coli” value was “not soluble”.

In the case of “KTTVRVGLVQWQMRPYKTLDDVFEQVEFFVDAVSDYKSDFVLFPEYFNAPLMAKFNHLGEAQSIRGLAQYTEEVRDRFINLAISYNINIITGSMPYVKEDGGLYNVGFLVRRDGSYEMYEKVHVTPDEIKSWGLSGGKMVQTFDTDCAKIGILICYDVEFPELSRIMADQGMQILFVPFLTDTQNGYSRVRVCAQARAIENECFVVIAGSVGNLPRVHNMDIQYAQSGVFTPCDFAFPTDGKRAEATPNTEMILVSDVDLNLLNELHTYGSVRNLRDRRHDLYELKIKK”, the “soluble on expression in E. coli” value is on record as “not soluble”.

For “KVILKEDAEMLDEVVVTGYGMSQKRSLMTNSISKLDDKVLQNAAMSNAAQSLQGTVSGLRVTNTSGKPGSSPNIVLRGGASINKNLEGPLVVVDGLVRSMDDINPSDIESIQVLKDAASTAIYGARANNGVILVTTKKGVEGR”, the “soluble on expression in E. coli” value was “not soluble”.

As to “KVKELNLHELCAVCLEDFKPRDELGICPCKHAFHRKCLIKWLEVRKVCPLCNMPVLQLAQL”, the “soluble on expression in E. coli” value is listed as “soluble”.
